The values below come from FireProtDB (doi:10.1002/pro.346).

The conditions of the series: Homo sapiens; pH 7.4; 25 °C; GdnHCl; CD; KPi 50 mM; structure 1TIT.

For Titin Y12685F, Q8WZ42, the “ddG of mutation (higher = less stable)” value turned out to be 0.4 kcal/mol, the denaturant m value was determined as 2.2 kcal/mol/M, the “denaturant midpoint (higher = more stable)” value (from here on “denaturant midpoint”) was 2.5 M and the unfolding free energy amounted to 5.5 kcal/mol.

On to Titin Y12685G, Q8WZ42, for which the “ddG of mutation (higher = less stable)” value was 0.8 kcal/mol, the denaturant m value is 2.2 kcal/mol/M, the “denaturant midpoint” value stood at 2.3 M and the unfolding free energy was 5.1 kcal/mol.

For Titin Y12685P, Q8WZ42, the “ddG of mutation (higher = less stable)” value was found to be 2.2 kcal/mol, the denaturant m value turned out to be 2.2 kcal/mol/M, the “denaturant midpoint” value worked out at 1.7 M and the unfolding free energy is 3.7 kcal/mol.

As for Titin Y12685S, Q8WZ42, the “ddG of mutation (higher = less stable)” value was 0.2 kcal/mol, the denaturant m value was determined as 2.2 kcal/mol/M, the “denaturant midpoint” value worked out at 2.6 M and the unfolding free energy was determined as 5.7 kcal/mol.
